Measured values as given in article PMC10763564, “BrainBike peptidomimetic enables efficient transport of proteins across brain endothelium†” (RSC Chemical Biology, 2023).
Starred links: 1 amine or outer side, 2 acyl side, 3 side chain; linkers in the order of their positions; H or OH if unused. Positions of bridges follow the written chain, without caps; N, C: chain ends. No end group written: not given here. TBMB = c1c(C[*:1])cc(C[*:3])cc1C[*:2]

Tests used:
[1] = target: T1, TfR1 fused to a green fluorescent protein, on transfected HeLa cells (TfR1+++) (UniProt P02786 1-760); test: flow cytometry on cells; sCy5-labelled peptide on HeLa cells transfected with GFP-TfR1 (TfR1+++), cells with higher levels of the receptor analysed; conditions: one partner purified
T1 construct: Transferrin Receptor 1 (TfR1) encoded by a plasmid as a fusion with GFP; The transfected HeLa cells carry the endogenous TfR1 as well; also called GFP-TfR1; source: HeLa, transfected, on cells

[2] = target: T2, Transferrin Receptor 1 on HeLa cells (TfR1+) (human (endogenous in HeLa), UniProt P02786 1-760); test: flow cytometry on cells; sCy5-labelled peptides on HeLa cells (TfR1+, endogenous receptor); conditions: one partner purified
T2 construct: Transferrin Receptor 1 (TfR1), endogenous on HeLa cells; source: endogenous, on HeLa cells
T2 sequence (P02786 whole entry): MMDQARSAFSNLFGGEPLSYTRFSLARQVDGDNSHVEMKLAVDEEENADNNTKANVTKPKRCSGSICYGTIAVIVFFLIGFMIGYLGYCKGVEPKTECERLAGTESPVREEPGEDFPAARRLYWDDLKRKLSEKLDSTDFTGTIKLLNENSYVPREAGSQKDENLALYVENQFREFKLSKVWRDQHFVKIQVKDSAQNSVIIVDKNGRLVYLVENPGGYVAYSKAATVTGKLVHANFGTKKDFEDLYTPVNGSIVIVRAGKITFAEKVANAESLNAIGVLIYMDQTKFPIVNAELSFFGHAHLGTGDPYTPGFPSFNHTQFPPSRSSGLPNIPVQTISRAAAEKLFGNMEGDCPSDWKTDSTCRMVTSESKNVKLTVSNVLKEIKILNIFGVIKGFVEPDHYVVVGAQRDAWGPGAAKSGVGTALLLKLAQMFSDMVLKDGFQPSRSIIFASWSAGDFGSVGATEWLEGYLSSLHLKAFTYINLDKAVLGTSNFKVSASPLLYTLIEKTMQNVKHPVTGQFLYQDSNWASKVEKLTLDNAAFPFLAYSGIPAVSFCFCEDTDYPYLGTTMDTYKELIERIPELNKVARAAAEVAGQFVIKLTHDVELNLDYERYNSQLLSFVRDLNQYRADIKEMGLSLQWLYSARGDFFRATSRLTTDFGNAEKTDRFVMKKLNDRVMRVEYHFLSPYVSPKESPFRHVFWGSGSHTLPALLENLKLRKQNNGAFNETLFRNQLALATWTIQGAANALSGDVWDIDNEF

T1 sequence (P02786 whole entry, the tested form may be a part): as the sequence (P02786 whole entry) above

Binder: {sulfo‑Cyanine5}-GSGCVHWDCRQWC (linker 4-9-13 via TBMB) [BrainBike-4 labelled with sulfo-Cyanine5]
- fold binding against the same cells without overexpressing the receptor [1]: ~40 fold
- Kd [2]: ~40 nM
- fold cell association against the parent peptide Y1 [2]: 7 fold
